The target of data set [1] is Taq DNA polymerase (rTaq) (Thermus aquaticus) (UniProt P19821). Kind of data set: FP_none.
The target in data set [2] is Tth DNA polymerase (rTth) (Thermus thermophilus) (UniProt P52028). Kind of data set: filter.
The target in data set [3] is Taq DNA polymerase (rTaq) (Thermus aquaticus) (UniProt P19821). Kind of data set: filter. The following applies: room temperature.

The source of these data is US5693502.

A value given as a limit tells only on which side of the number the result lay.

Tth DNA polymerase (rTth) (Thermus thermophilus), sequence (P52028 whole entry): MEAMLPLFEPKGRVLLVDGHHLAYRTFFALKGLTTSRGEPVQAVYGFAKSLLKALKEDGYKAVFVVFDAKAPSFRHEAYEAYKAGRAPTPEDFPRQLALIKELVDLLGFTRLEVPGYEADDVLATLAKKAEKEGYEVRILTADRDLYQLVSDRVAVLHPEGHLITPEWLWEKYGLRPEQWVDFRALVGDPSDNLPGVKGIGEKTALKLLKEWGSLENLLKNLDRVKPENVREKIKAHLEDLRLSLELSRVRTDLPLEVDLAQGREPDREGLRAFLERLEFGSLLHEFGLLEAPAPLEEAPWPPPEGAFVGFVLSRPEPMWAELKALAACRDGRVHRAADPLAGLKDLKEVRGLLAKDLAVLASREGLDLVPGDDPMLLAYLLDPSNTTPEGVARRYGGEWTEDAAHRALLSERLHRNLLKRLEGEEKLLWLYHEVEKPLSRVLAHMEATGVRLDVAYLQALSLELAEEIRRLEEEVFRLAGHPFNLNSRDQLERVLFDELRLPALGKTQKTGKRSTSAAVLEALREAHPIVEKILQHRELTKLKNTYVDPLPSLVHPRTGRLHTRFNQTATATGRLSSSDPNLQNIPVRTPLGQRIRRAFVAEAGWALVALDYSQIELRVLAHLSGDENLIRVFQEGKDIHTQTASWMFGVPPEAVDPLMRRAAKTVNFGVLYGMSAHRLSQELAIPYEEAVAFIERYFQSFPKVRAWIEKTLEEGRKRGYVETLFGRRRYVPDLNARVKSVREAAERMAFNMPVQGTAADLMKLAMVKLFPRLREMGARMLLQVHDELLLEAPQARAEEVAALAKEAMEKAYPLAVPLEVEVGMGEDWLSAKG
Taq DNA polymerase (rTaq) (Thermus aquaticus), sequence (P19821 whole entry): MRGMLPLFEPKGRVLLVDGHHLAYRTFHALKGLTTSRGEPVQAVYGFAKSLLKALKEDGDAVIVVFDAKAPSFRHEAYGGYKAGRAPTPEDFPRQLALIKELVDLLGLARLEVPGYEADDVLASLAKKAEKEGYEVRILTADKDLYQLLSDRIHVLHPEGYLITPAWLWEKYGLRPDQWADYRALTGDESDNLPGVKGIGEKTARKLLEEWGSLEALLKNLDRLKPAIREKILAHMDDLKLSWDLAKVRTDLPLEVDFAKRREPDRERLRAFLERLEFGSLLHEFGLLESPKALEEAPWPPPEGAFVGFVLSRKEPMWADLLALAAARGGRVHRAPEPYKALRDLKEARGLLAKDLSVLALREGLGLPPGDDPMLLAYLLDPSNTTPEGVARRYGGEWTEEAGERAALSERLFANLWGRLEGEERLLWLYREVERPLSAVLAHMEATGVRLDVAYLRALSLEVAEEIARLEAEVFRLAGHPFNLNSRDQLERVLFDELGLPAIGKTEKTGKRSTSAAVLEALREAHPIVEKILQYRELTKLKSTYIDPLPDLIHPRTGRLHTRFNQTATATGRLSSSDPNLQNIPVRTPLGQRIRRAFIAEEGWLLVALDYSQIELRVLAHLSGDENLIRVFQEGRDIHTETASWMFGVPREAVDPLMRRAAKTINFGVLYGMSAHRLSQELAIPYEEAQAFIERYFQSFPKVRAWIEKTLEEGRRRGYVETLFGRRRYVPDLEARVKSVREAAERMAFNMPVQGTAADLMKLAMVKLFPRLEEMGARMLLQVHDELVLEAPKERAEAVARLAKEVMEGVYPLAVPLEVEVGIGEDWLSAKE

Take “TTCTCGGTTGGTCTCTGGCGGAGCNNNNNNNNNNNNNNNNNNNNNNNNNNNNNNTCTTGTGTATGATTCGCTTTTCCC [Taq-enriched ssDNA pool (round 12)]”: the dissociation constant Kd (commonly the equilibrium constant for the complex coming apart) in data set [1] was found to be 3.5 nM; in data set [2] (cross binding of Taq-selected pool, room temperature), 0.2 nM.

Take “TTCTCGGTTGGTCTCTGGCGGAGCNNNNNNNNNNNNNNNNNNNNNNNNNNNNNNTCTTGTGTATGATTCGCTTTTCCC [Tth-enriched ssDNA pool (round 10)]”: the Kd was found to be 0.3 nM in data set [3] (cross binding of Tth-selected pool, saturates at about 50%, about half of pool not interacting) and 5 nM in data set [2] (50 mM Bicine-KOH pH 8.3, 90 mM KCl, 3.5 mM Mn(OAc)2, tRNA, 0.01% hSA, room temperature).

For the sequence “TTCTCGGTTGGTCTCTGGCGGAGCNNNNNNNNNNNNNNNNNNNNNNNNNNNNNNTCTTGTGTATGATTCGCTTTTCCC [unselected random 30N ssDNA pool]”, the dissociation constant Kd is > 50 nM in data set [3] (unselected pool, 10 mM Tris-HCl pH 8.3, 50 mM KCl, 2.5 mM MgCl2, tRNA, 0.01% hSA) and 70 nM in data set [2] (unselected pool, Bicine-KOH pH 8.3, 90 mM KCl, 3.5 mM Mn(OAc)2, room temperature).
